experiment: soluble fraction after stress (log2 fold change); higher = more stays soluble; pooled small domains, quantitative proteomics; conditions: stress: 50 degC
Method in brief: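 The stress applied to every library was 50°C. These custom libraries of small protein domains were pooled and measured at high throughput with quantitative proteomics as the read-out. Aggregation propensity is expressed as the base-two logarithm of the fold change in how much of each protein remains soluble. The higher the value, the more of that protein stays in solution.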

Sequence	soluble fraction (log2)
HMDSIKDQIYQILKEDILTGELRSGEQLVEQTIAARFNTSRSPVREAIKQLTGDGLVINITNKGTFVK	0.168
HMSAEKDGEWLTLTEAAKHLQVSPHVIRRLIQTGALPAEQVMRGAPHQIRAADLDTDRVKTMIAR	0.193
HMDASVTIEQVERMVQANVSDDVIISQLQGRGAAQNLSTDDIINLTQKGISAEVIKAYQSAG	0.0658
HMSGTGSYVALLRDPQGNVGKVVVKGSKGEQVLSQPQQAARLDGATPSYEVTGRQIAEDFGRALAV	0.127
HMDDLIIQIELKQEGLEITGLKVLLKEDSVIDEQVKQTIRRKIERFLVNLYGNPNVYVSKFSMGI	-0.325
HMSYFIFDGVLNLGKQYELKGEESSHITKSRRLRPGDSFLIQDQEGQRFEAILKSFDRNSLIFTPHKPTA	-0.0922
HMQQPVAYSEFVQSVNDRQIREAQIQGERIVATDNNGNRMTVIWPENDTKLLDELVQNGVLTSIQE	0.12
HMAAKADAVKKAIAAIGKVDASEDSKAKVEAARKAYAALTEDQKKLVEASQLKLLTEAEAAYQQAVEESKK	0.0525
HMTLPELTDRELQILQLLSVGNSSQKIAKQLNISTHTVSTHRKQLLRKLGAQNGADLIRRAQKLGIL	-0.44
HMSLGSQEYSIGFRNGDSTYHYIDKALKELAYEGVIDELSTQWFGSSRAVDFPSQKDALSELGYIA	-0.0308
HMTENQKNIDLIKIVSLLVHAAKIDENYTNKEKELIINFINNFSKENKQNIKSSEILEEAEKYEK	0.0572
HMLNMSVYDKQLLRAVENNPFISQRELARELHWNVDRVKYYMKKWKDKGGLRHVGSSHKGYWEVLVRIEEK	-0.886
HMNLLGERIREIRMEMGLTAKELAQRASVTPGYISQIEHDQIKPSMNVMMRIAEVLNVPMAALLM	-0.51
HMTVKRNILQELLKTAFKHPEDFRPSKTFYGETGIGQKRFWALYYGHKAVTQKEYYAVADYLG	-0.0349
HMARGATELPYSQLLDRVEAGEITTATTQGNTLLSTARDGKRYITYLPLDTMDEVVPRLDAANVEVKTER	0.0506
HMHDNPLSAQEQRVLDLIAAGKTSKEIASQLFLSDGTVRNYTTSIFNKLNANNRVEAINIAQENGW	0.486
HMKMLKAPIPGTIIEVKVNPGQTVNDGDVAVVLEAMKMESDIHFNSSGKVKKIHVNKGDSVQEGDDLIELE	0.0938
HMSTDSTQLLGFNKTGEELPIYKEANEENKFAEIPQNVYVKNFGQNGEFTKIKYLDQEGYVKTAGLK	≥ 0.62
HMLGYQALASAFRSKVEAGIWPIGEAIPSEARLSKEYGVAVGTIRQAIAELAEEGILIKRHGKSTMVSSG	-0.873
HMDRELVALVQKALSQLSEQQRRIVELHVMEGMKYLEIADLLQLSENTVRTHLKRAYKILRENH	-1.76
HMVSNFEAEFGRHFAIFFPGSEFTELKLRLLEEGAELIDPIRDTPFERFFFKDPNGYIFEVIDKE	-2.28
HMNVDSIPGKSGIVTQGIDNLKAMGRVTVNGMEWTARSKDGSLIEEGKVVRVYGVEGVKLIVEED	-0.0306
HMDLDPVEKLHLLSQLYVGQLKGSFVVKEKNQKTTIIGEVRELSHQTLSIRTNEGYRLIEVADILEIRLWE	-0.221
HMEDAWMKKELWDAIATLPKKQRLVMTMRLTNNHSYKEIAAILGISENSAKVSYHHAVERLKEKFK	-1.33
HMSFRYLHVKRQLMSLIGTMNAHERLPSRTDLSETFQVARTTIERAISELIGEGWLYARDGSGTYVAER	-1.66

Sequence	soluble fraction (log2)
HMSKEGLASLLEDINGLGAIRRKTLIDHFGSVAKIRGARPEEIAALPGMGRKIAEHILASLRED	-0.251
HMGADPTTWPEIDAFVGRVAVTATGLFPSGQVEIDGRRFEARLAFGVAEPGARVVVRRRTDFGLLVEKETR	-0.389
HMLHEFSGVVVSILADTGPSTLKQLHRSLISSDVKMDEKELMQILDEALSSGSVTSHRKGRYLYYSANK	-0.58
HMKNSKIVIQKRHNHILELLKQNRTMDVTVLAERLGVTGATIRRDLKKLEQEGTIVRSFGKVSFVG	-0.867
HMGEDFPYVAYATDSVRLRSKPSSSGDILAVIRQGDAVLITGSDGNYKIVEYEGRKGYVISAFLSQTP	-0.199
HMEEQQIQLIQMKMEKDHKYVGKKISELRIKNMLIVLIKRGDEDIIPRAEVKIKEGDILVLSAQSYEG	-0.00468
HMKSDELTKRRRLQIIEAAERSFRKRGFHATTLREIAAEFGMSVGHIYNYFSGKDAILEALIHQKIDD	-0.82
HMTPDDSYIAGYAAGILKHQFLIDAPELIVRNGTITIPADKVSAGDRAKVVQILSGIPGVTRVEVG	-0.0502
HMHQGTIEVGSIVHIEGQKALGTILSLTQREAIVGLGALKTTIPLKRLHLATEAEARRHKKSVTPQEAV	0.0611
HMIMTHSALLEKDGFDIVKVHFERPNDDGFDFLDMTLPGEIVYKSFGFSEDEILKLKRYAKNNSSLIWDF	-2.31
HMDIYENIDKELSKQGKSRRKLAIAAGIPPSTFQSMMERKRGLSVENLRKIAEVLNLKWYDLL	-0.195
HMVTYELTEDEKFIVSLLEKENSQPIGALKDKSALSGKKWDAAMKGLAKHGLTKVVVDGDNKLVVL	-0.00965
HMEELVGFEEKVRSILTSPLSAKEIKEKTHIEIDTRKLSKMLSELSFIKTEKKNGKKIFRLVS	-0.284
HMDVPTEEAILAYNNVPIELAAKFIGWSDITIRYALQEERAPFGMAAQNPKTGTWSYNISPGLLLKYKSGE	-2.11
HMPQTDDSEPLGKYGRMRLAYLKNQRPVLYNQMLLNGTLWPHLQDVQKTAYEWLERTMTTLLDK	-0.0745
HMQKYEDIINVTRERLQNKFYSQTVIPTDDDIYIWLDKVAILEEIKLSKEDRQMLFNLLKKEAT	-0.451
HMVEVTTDEITRPGAMVSGSVTFSDGVKAIWLIDEYGRPGLEPETPGYQPSESDLSEFEKHLRALLQ	0.0647
HMREGLRHLRVRMPGGAGETLAMLYREGEVLSQSSDGAFIEVEIRVAQSVAGRLLQMPGVQLTEEVG	-0.21
HMFLTPLEEARLVIEEIVIPKNIAVDLSPRPSALRKQQHELIAHYQLKSFSVGNERTKRLRILPKVI	-0.114
HMLHIKKGDTVIVNAGESKGQQGKVLEVLVGKERAIVEGVNMVSKHTKPNAKNPQGGIVKKEAPIHISNLQ	0.179
HMSAGYTYQNYQQDLKSGNVQNIHIYLSEEMYSGNVKVIYKNNKSVTFTVTDVTIAEAEARQVGISPIIYE	-0.1
HMQETILFGQQKAINNLSSDTGLSENDLDSYLKKRYKKPLYQLTQSEGADIINGFQDGSLSKNSILDYIKP	0.16
HMSQTELIIVEEEMDGERLDAFLAEQVEQLSRSAVKNLINEGQVLVNGAKQKASYHVREGDEISIEIPEPQ	0.0254
HMALQLPFSFAKRHKVLVESAHEPVKVYHTPSTDFAVFAEVRRFLDQTFVLEEIAENRFEELLTSSFQRD	-1.27
HMIANDDEIRKVVLEVIEEQPKAVEDVKNGRDRILDFLVGQVMKKTRGKANPSLASNLMKEEIEK	0.177

Sequence	soluble fraction (log2)
HMIRDTTMYPVSVNGKKRYEWTVSKSISDDELKQQVLELEEIKKWIEGHEIKKLIFVPGRAINIV	-0.69
HMAEDDAVQKAVREAVAESADAVADYKAGSERALNFIVGVVMKKTRGKASPGEVHRLVKAEVEK	0.4
HMATKVNSGVTVRDLAELLGLSSADLIKKLMTMGEMATLTQTLTDDSVKAIADEYDRKIEIVSAAQ	-0.0488
HMTSHSFVITEEVGQRLDRFISDQLDTVSRTMIQKHIRSGAVVVNGKQVKSNYLLVLNDRINIALK	-2.64
HMDKLNKELVSRMMDDAAWKELSKDFPWTEQLLEKYMNYVDWKEISRNYNVVWTKSLLEKFKHRLDWHE	-1.44
HMKPVTVINFVGMTEEKAMTEAEKLGLVVGASSSEYSDEPAGTVIRQSISVSTEAKTGDNIYFTVSKGPE	0.163
HMSLQEISDLISQAERADQEQLKEVLKQLHQVESGNQPMSKGFLSSALSTLNKYPALITSIGQLLFKLAT	0.00954
HMGIIYGKNPVLEAISSGTTINKIYAQTSNKEIDSVIKEALKRKIIVVNTDKQKLDKMIDGKNSQGIIASI	0.317
HMIDNKIIRSLRQKRNMTLEELAKKANISVSYLSEIELGKKQPSLETINKLSQALNISREGLI	-0.0409
HMDYDDLVPLDARGRLRLDGQDIILAFGRHRGRSIEEVHNHDKSYFDWLVSPAGGLEDEVIATLRERF	-0.607
HMTTLLNHLKGTRLEAGLSQQALARLAGISRQAYSALESGSSNPSTEVALRLARALKTSVDHLFSLPE	-0.989
HMGITMFGQNLKKLRTSKNLSQSKLSKILGISSSTIGMYEQGRRFPDQTILTKIADFFDVSTDYLLGR	-0.268
HMDIEELLSRSTDRLSRQTEIRRLLADAQGRPNISSLARRFKVARRTVIRDLQELIRRGEVPPEIYPK	-0.744
HMDDDDPDQEIAQYYEKLRAMNPDEETKQKLSDEINKLSKMMYSSQEAMVSRNYLDTVFSLPWHQF	-0.0959
HMVSNRMVYSDFQQKWINNQVESINVNADKMTIEVTTQDEKKYTVYAPSSMIEFLNEQYPKDDIKIEYVAP	-0.147
HMSSANIKLDPLERQATQQIINNIKRKYPNATIENLQEVANDAIATMRQPEFSNYTVDKFVSYFLSM	-0.333
HMSEYNPGIYRVTDPALNIRTGPGVEYPVVGVIKDQGSYTITEIRNKSWGRLLSGAGSTAIKHIVFT	0.0941
HMLQARKFTHIQGYEFEAEFLRTNGEFVELQDPQGRKKWFPISNFIQDDKDFIKEQAGNLSS	-0.0494
HMVQYVDFVKRMIEELPWWHRRMLELKYLDGLTYEEIADELQVPVGTVKGTLHRAKELFQEILKNN	-2.05
HMKTKKYKGVYKDSKGKIYFQIELGVDPITGKRIQKKGRKNQQGLPFNSFKEAYEEILRLKHEFVNSTIN	-2.69
HMTALISGNKAMQMLELSRHSFEKIVKDGLLSIVHEGDKKYYEIGEVEAFMGSDTYKELVNGV	-0.345
HMLDPIQEGKKMLNSRLSGFGITPNTRLMNKLLAAYNISSREEFYGRIGAGIEDLSTLREVLLKGT	-0.284
HMNNGYSINEIAKLMKMTLKVVRRYVASGELKTTKTNNTYSISEEAFNEFKKYIEEGGDAKHAQEVADTFK	-0.229
HMTLYITDQMRKILDYVATNQEIDEKAVMDLLSIQRTRAYLIAKKMTDIGLLQVQGRGKTKTYRLAARS	-1.93
HMADQVVGQLGMVTQRIDNLQQTGRVSANGLDWAARSENGQPIPQGMPVEVLRIEGVKLIVRPVN	-0.0238
